# Reference: PMC11344278, “Structural and biochemical characterization of the C‐terminal region of the human RTEL1 helicase” (Protein Science : A Publication of the Protein Society, 2024)
# T1: RTEL1 CT-L (entire C-terminal region) (Homo sapiens) (UniProt Q9NZ71)
# T1 sequence (Q9NZ71 whole entry, looked up): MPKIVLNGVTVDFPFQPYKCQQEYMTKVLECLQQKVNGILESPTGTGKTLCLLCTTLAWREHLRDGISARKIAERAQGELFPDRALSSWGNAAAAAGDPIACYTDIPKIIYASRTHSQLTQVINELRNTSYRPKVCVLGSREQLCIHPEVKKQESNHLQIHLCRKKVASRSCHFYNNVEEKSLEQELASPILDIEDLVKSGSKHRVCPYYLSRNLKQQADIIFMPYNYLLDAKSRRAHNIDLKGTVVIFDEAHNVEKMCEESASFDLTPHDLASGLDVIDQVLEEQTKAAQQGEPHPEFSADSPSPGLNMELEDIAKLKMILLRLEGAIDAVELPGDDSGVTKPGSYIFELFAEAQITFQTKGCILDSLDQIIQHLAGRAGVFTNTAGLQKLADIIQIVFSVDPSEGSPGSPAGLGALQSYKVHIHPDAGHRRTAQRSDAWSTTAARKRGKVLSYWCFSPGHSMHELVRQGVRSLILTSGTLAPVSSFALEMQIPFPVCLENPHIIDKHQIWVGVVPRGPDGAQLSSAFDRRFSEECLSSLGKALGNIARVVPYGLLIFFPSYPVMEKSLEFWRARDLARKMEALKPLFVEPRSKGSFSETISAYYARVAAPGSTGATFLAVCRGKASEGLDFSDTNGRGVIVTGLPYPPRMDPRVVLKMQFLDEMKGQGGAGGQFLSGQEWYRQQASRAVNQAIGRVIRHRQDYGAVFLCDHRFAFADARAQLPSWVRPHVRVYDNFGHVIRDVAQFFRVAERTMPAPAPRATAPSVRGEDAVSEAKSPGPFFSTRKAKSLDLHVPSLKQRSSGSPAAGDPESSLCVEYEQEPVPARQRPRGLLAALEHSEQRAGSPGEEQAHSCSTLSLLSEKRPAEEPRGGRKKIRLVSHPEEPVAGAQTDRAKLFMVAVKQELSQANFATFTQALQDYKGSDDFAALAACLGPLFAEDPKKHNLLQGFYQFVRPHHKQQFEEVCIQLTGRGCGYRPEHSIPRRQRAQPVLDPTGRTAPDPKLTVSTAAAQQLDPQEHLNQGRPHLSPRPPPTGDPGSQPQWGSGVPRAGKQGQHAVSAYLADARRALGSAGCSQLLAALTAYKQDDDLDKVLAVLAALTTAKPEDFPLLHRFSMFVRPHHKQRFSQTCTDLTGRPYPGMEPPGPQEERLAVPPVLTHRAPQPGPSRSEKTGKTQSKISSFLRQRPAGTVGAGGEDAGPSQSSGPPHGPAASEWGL
# T2: RTEL1 HHD1-2 (Homo sapiens) (UniProt Q9NZ71)
# T2 sequence: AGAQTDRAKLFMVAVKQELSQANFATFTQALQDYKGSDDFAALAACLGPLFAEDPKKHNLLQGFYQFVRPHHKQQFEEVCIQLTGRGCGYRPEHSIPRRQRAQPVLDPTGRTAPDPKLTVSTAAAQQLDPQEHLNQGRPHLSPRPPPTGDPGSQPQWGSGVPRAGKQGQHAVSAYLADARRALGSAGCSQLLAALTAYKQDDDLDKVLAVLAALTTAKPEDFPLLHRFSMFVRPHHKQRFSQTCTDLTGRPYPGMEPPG
# T3: RTEL1 HHD2 (Homo sapiens, UniProt Q9NZ71 1053-1147)
# T3 sequence: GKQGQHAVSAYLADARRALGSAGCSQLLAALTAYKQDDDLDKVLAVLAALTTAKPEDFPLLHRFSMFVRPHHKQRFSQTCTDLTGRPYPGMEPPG
# B1: RNA fork (R1L:R3L) (dsRNA)
# RNA 1: CUACCCCCACCCUCACAACCUUUUUUUUUUUUUUU
# RNA 2: UUUUUUUUUUUUUUUGGUUGUGAGGGUGGGGGUA
# B2: DNA fork (D1L:D3L) (dsDNA)
# DNA 1: CTACTACCCCCACCCTCACAACCTTTTTTTTTTTTTTT
# DNA 2: TTTTTTTTTTTTTTTGGTTGTGAGGGTGGGGGTAGTAG
# Assays:
# [1] = molecular target: T1, RTEL1 CT-L (entire C-terminal region) (Homo sapiens); experiment: EMSA; details: 0.5 mM Mg2+, 20 mM Tris pH 7.5, 50 mM KCl, 0.5 mM MgCl2, 10% glycerol, 0.1% Igepal, 10 nM substrate, EMSA at room temperature 15 min (0-160 nM protein), FA at 25 C …
# [2] = molecular target: T2, RTEL1 HHD1-2 (Homo sapiens); experiment: fluorescence anisotropy; details: 0.5 mM Mg2+; 20 mM Tris pH 7.5, 50 mM KCl, 0.5 mM MgCl2, 10% glycerol, 0.1% Igepal, 10 nM substrate; EMSA at room temperature 15 min (0-160 nM protein), FA at 25 C …
# RTEL1 HHD2 = molecular target: T3, RTEL1 HHD2; experiment: fluorescence anisotropy; 0.5 mM Mg2+; 20 mM Tris pH 7.5, 50 mM KCl, 0.5 mM MgCl2, 10% glycerol, 0.1% Igepal, 10 nM substrate; EMSA at room temperature 15 min (0-160 nM protein), FA at 25 C (0-2500 nM protein); Hill-slope fit; details: protein: recombinant, tags: N-terminal 6His-Trx removed by TEV
# [3] = molecular target: T4, human PCNA (Proliferating Cell Nuclear Antigen) (human, UniProt P12004 1-261, uniformly 2H,13C,15N labelled (for NMR experiments)); experiment: ITC; 16.8 uM PCNA in the cell, 282 uM PIP1 peptide in the syringe; 35 °C; PBS pH 7.0, 1 mM TCEP; fitted to a 1:1 binding model (one set of identical sites); details: both partners purified
# T4 construct: 3-residue N-terminal extension left after HRV 3C cleavage, preceding the native initial methionine; human PCNA, UniProt P12004, from the native initial methionine; The methods describe only the isotopically labelled PCNA made for NMR; not shown: His6, N-terminal, cleaved
# T4 sequence (P12004 other isoform, or with tags, fused parts or gaps): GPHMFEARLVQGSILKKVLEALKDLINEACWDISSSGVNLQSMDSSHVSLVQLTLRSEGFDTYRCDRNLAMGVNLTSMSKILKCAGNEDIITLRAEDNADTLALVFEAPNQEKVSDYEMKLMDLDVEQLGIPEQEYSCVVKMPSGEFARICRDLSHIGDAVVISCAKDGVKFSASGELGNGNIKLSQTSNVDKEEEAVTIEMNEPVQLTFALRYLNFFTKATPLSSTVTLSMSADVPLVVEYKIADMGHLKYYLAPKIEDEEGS
Molecule,Kd [1],Kd [2],also measured
CTACTACCCCCACCCTCACAACC (double strand) [dsDNA (D1B:D3B)],63 nM,,
CTACTACCCCCACCCTCACAACCTTTTTTTTTTTTTTT / TTTTTTTTTTTTTTTGGTTGTGAGGGTGGGGGTAGTAG [DNA fork (D1L:D3L)],43 nM,155 nM,
CTACTACCCCCACCCTCACAACCTTTTTTTTTTTTTTT / UUUUUUUUUUUUUUUGGUUGUGAGGGUGGGGGUA [DNA/RNA fork (D1L:R3L)],52 nM,,
CTACTACCCCCACCCTCACAACCTTTTTTTTTTTTTTT [ssDNA],40 nM,247 nM,
CUACCCCCACCCUCACAACCUUUUUUUUUUUUUUU / UUUUUUUUUUUUUUUGGUUGUGAGGGUGGGGGUA [RNA fork (R1L:R3L)],51 nM,273 nM,
CUACCCCCACCCUCACAACCUUUUUUUUUUUUUUU [ssRNA],46 nM,192 nM,
GTACCCGGGGATCCTCTAGAGTCGACCTGCAGGCATGCAAGCTTGGCACTGGCCGTCGTTTTACAAC / GTTGTAAAACGACGGCCAGTGCCTTTTCCCAGCCTCAATCTCATCACTCTAGAGGATCCCCGGGTAC / GCTTGCATGCCTGCAGGCCAGCCTCAATCTCATC [D-loop (D4:D9:D11)],11 nM,327 nM,
GTACCCGGGGATCCTCTAGAGTCGACCTGCAGGCATGCAAGCTTGGCACTGGCCGTCGTTTTACAAC / GTTGTAAAACGACGGCCAGTGCCTTTTCCCAGCCTCAATCTCATCACTCTAGAGGATCCCCGGGTAC / GCUUGCAUGCCUGCAGGCCAGCCUCAAUCUCAUCUUUUU [R-loop (R4:D9:D11)],10 nM,160 nM,
GTACCCGGGGATCCTCTAGAGTCGACCTGCAGGCATGCAAGCTTGGCACTGGCCGTCGTTTTACAAC / GTTGTAAAACGACGGCCAGTGCCTTTTCCCAGCCTCAATCTCATCACTCTAGAGGATCCCCGGGTAC [Bubble (D9:D11)],27 nM,,
TGAGGGTGGGTAGGGTGGGTAA [1XAV c-Myc promoter G4],,,Kd ([1]; K+): 57 nM
TTAGGGTTAGGGTTAGGGTTAGGGTT [2JPZ telomeric G4],,,Kd ([1]; K+): 26 nM
UUAGGGUUAGGGUUAGGGUUAGGG [TERRA G4],,38 nM,Kd ([1]; K+): 10 nM
B1,,,"Kd (RTEL1 HHD2; label: 5' 6-FAM on strand 1, fork with U15 arms (3' on strand 1, 5' on strand 2), end as printed not fully blunt): 512 ± 104 nM"
QSKISSFL [RTEL1 PIP1 peptide (canonical PIP-box of human RTEL1)],,,Kd [3]: 53300 ± 7200 nM
B2,,,"Kd (RTEL1 HHD2; label: 5' 6-FAM on strand 1, fork: 23 bp duplex, T15 arms (3' on strand 1, 5' on strand 2)): 254 ± 52 nM"
UUAGGGUUAGGGUUAGGGUUAGGG (structured_RNA) [TERRA G4],,,"Kd (RTEL1 HHD2; label: 5' 6-FAM, G4): 489 ± 124 nM"
